Each block holds one binder with its values, some of them ahead of it.
What was measured:
[1] = molecular target: T1, Human LIGHT-214E, full length, expressed on cells (human, UniProt O43557 1-240); assay: flow cytometry, HEK293FF human LIGHT cells
T1 construct: also called membrane LIGHT

[2] = molecular target: Full length LIGHT V196A on HEK293FF cells (Homo sapiens (Human), UniProt O43557 1-240); assay: flow cytometry, HEK293FF, mAb at EC50
Experimental: (§1) The day of transfection the cells were seeded in a 24-well plate at 0.6×10⁶ cells/well. Lipofectamine 2000 (ThermoFisher scientific), 3 ul, was mixed with 50 μl OptiMEM medium (GIBCO) and then added to 50 μl Opti-MEM medium containing 3 ug plasmid DNA and incubated for 20 min at RT to form DNA-Lipofectamine 2000 complexes which were then added to the HEK293FF cells and incubated at 37° C., 5% CO₂ for 24 hours. For each construct, in duplicate, 0.60×10⁶ cells/well were used in a 96 well round bottom plate. Cells were centrifuged for 3 minutes at 300×g at 4° C., the supernatant discarded and the cells washed with 150 μl FACS buffer (0.5% FBS in phosphate buffered saline). This process was repeated 3 times. […] The wells were washed 3 times as above and 50 μl/well of goat anti-human IgG FITC (1:1500 dilution in FACS buffer, SIGMA F9512-2ML) or goat anti-mouse APC (1/500 dilution in FACS buffer, BDBioscience 550826), as appropriate, was added to the wells and incubated for 30 min at 4° C. protected from the light, with shaking. The cells were then washed as above, resuspended in 100 μl of FACS buffer and binding of the antibodies to the constructs was measured using flow cytometry and a total of 10,000 cells were acquired for each sample. Controls of buffer and secondary antibody only as well as HEK293FF non transfected cells were also used.

[3] = molecular target: Full length LIGHT A190S on HEK293FF cells (Homo sapiens (Human), UniProt O43557 1-240); assay: flow cytometry, HEK293FF, mAb at EC50
Experimental: as §1

[4] = molecular target: Full length LIGHT S192A on HEK293FF cells (Homo sapiens (Human), UniProt O43557 1-240); assay: flow cytometry, HEK293FF, mAb at EC50
Experimental: as §1

[5] = molecular target: Full length LIGHT W198A on HEK293FF cells (Homo sapiens (Human), UniProt O43557 1-240); assay: flow cytometry, HEK293FF, mAb at EC50
Experimental: as §1

[6] = molecular target: Full length LIGHT T191A on HEK293FF cells (Homo sapiens (Human), UniProt O43557 1-240); assay: flow cytometry, HEK293FF, mAb at EC50
Experimental: as §1

[7] = molecular target: Full length LIGHT S194A on HEK293FF cells (Homo sapiens (Human), UniProt O43557 1-240); assay: flow cytometry, HEK293FF, mAb at EC50
Experimental: as §1

[8] = molecular target: Full length LIGHT W197A on HEK293FF cells (Homo sapiens (Human), UniProt O43557 1-240); assay: flow cytometry, HEK293FF, mAb at EC50
Experimental: as §1

[9] = molecular target: Full length LIGHT R189A on HEK293FF cells (Homo sapiens (Human), UniProt O43557 1-240); assay: flow cytometry, HEK293FF, mAb at EC50
Experimental: as §1

[10] = molecular target: Full length LIGHT S193A on HEK293FF cells (Homo sapiens (Human), UniProt O43557 1-240); assay: flow cytometry, HEK293FF, mAb at EC50
Experimental: as §1

[11] = molecular target: Full length LIGHT R195A on HEK293FF cells (Homo sapiens (Human), UniProt O43557 1-240); assay: flow cytometry, HEK293FF, mAb at EC50
Experimental: as §1

[12] = molecular target: Full length LIGHT G188A on HEK293FF cells (Homo sapiens (Human), UniProt O43557 1-240); assay: flow cytometry, HEK293FF, mAb at EC50
Experimental: as §1

[13] = molecular target: T2, Human LIGHT stably expressed on EL4 cells (EL4-LIGHT) (human, UniProt O43557 1-240); assay: flow cytometry competition on EL4-LIGHT cells, co-incubation 40 min 4 C; blocked ligand DcR3-Fc-AF647 0.8 ug/ml; same IC50 as 0.031ug/ml, second unit printed
T2 construct: whole, on cells; also called membrane LIGHT
Experimental: (§2) EL4-LIGHT cells were co-incubated with Alexa Fluor 647 conjugated DcR3-Fc (DcR3-Fc-AF647; 0.8 μg/ml) and graded concentrations (31 μg/ml to 128 μg/ml) of anti-membrane LIGHT antibodies (3B04, 03D12 and 02B111) for 40 min at 4° C. A control, of a mAb that binds both soluble and membrane LIGHT was included (F19 from EP2292663). The samples were washed three times and flow cytometry analysis was performed. Specific mean fluorescence intensity (MFI) obtained from the binding of DcR3-Fc-AF647 to LIGHT on EL4 cells were used to determine the levels of competition binding.

[14] = molecular target: T2, Human LIGHT stably expressed on EL4 …; assay: flow cytometry competition on EL4-LIGHT cells, co-incubation 40 min 4 C; blocked ligand DcR3-Fc-AF647 0.8 ug/ml; displacement is partial
Experimental: as §2

[15] = molecular target: T2, Human LIGHT stably expressed on EL4 …; assay: flow cytometry, against F19 and F23
[16] = molecular target: LIGHT without residues 81-84, stably expressed on EL4 cells (EL4-NC-LIGHT); assay: cell-based or functional assay
[17] = molecular target: T3, Human LIGHT-32L, on II23 cells (human, UniProt O43557 1-240); assay: flow cytometry on II23-LIGHT 32L cells, 4 ug mAb in 100 uL, goat anti-human Fc gamma-PE; signal as % of the commercial anti-LIGHT-PE
T3 construct: also called II23-LIGHT 32L
T3 chain: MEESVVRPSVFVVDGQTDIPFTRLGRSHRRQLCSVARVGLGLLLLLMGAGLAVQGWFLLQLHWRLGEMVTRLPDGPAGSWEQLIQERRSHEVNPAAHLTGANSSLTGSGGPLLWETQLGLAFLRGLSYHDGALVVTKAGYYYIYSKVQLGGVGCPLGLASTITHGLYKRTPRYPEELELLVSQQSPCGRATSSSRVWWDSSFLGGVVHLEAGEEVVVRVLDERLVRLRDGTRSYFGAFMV
Experimental: The cells were suspended at 1×10⁷ cells/ml and 100 uL aliquots were placed into wells of a 96-well plate, the cells spun down and washed in FACS buffer at 1800 rpm for 2 min. The cells were blocked with 1:100 dilution of anti-CD16/CD32 (eBioscience, San Diego, USA) in FACS buffer for 20 min at room temperature and then washed 1× in FACS buffer at 1800 rpm for 2 min. The cells were then resuspended in 100 uL FACS buffer+4 ug anti-membrane LIGHT mAbs or anti-LIGHT-PE (eBioscience, lot: E01621-1632) for 30 min in the dark at room temperature, followed by washing 1× in FACS buffer at 1800 rpm for 2 min and then resuspended in 100 uL FACS buffer plus 1:100 goat anti-human Fcγ-PE secondary antibody or no secondary antibody at 4° C. in the dark for 30 min. The cells were again washed 1× in FACS buffer at 1800 rpm for 2 min and fixed in 200 uL 2% paraformaldehyde overnight at 4° C. and read on a flow cytometer.

[18] = molecular target: T2, Human LIGHT stably expressed on EL4 …; assay: flow cytometry, EL4-LIGHT cells
Experimental: The EC50 of the 7 mAbs were calculated from binding to EL4-LIGHT cells (FIG. 1). […] Non-linear regression analysis was performed to determine the functional binding affinity measurement or EC50 for each mAb. A range of functional affinities was observed.

Chain of Full length LIGHT W197A on HEK293FF cells (O43557 whole entry W197A): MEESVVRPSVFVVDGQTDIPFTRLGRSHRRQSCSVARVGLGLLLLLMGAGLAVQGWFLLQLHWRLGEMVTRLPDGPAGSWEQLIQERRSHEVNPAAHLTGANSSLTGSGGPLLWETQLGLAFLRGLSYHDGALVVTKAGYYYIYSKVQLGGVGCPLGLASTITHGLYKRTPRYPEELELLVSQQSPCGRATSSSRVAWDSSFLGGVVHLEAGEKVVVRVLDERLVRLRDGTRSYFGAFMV
Chain of Full length LIGHT V196A on HEK293FF cells (O43557 whole entry V196A): as the sequence (O43557 whole entry W197A) above, with V196A, A197W counted along it
Chain of Full length LIGHT A190S on HEK293FF cells (O43557 whole entry A190S): as the sequence (O43557 whole entry W197A) above, with A190S, A197W counted along it
Chain of Full length LIGHT S193A on HEK293FF cells (O43557 whole entry S193A): as the sequence (O43557 whole entry W197A) above, with S193A, A197W counted along it
Chain of Full length LIGHT R189A on HEK293FF cells (O43557 whole entry R189A): as the sequence (O43557 whole entry W197A) above, with R189A, A197W counted along it
Chain of Full length LIGHT S192A on HEK293FF cells (O43557 whole entry S192A): as the sequence (O43557 whole entry W197A) above, with S192A, A197W counted along it
Chain of Full length LIGHT G188A on HEK293FF cells (O43557 whole entry G188A): as the sequence (O43557 whole entry W197A) above, with G188A, A197W counted along it
T2 sequence (O43557 whole entry): as the sequence (O43557 whole entry W197A) above, with A197W counted along it
Chain of Full length LIGHT R195A on HEK293FF cells (O43557 whole entry R195A): as the sequence (O43557 whole entry W197A) above, with R195A, A197W counted along it
Chain of Full length LIGHT T191A on HEK293FF cells (O43557 whole entry T191A): as the sequence (O43557 whole entry W197A) above, with T191A, A197W counted along it
Chain of Full length LIGHT S194A on HEK293FF cells (O43557 whole entry S194A): as the sequence (O43557 whole entry W197A) above, with S194A, A197W counted along it
Chain of Full length LIGHT W198A on HEK293FF cells (O43557 whole entry W198A): as the sequence (O43557 whole entry W197A) above, with A197W, W198A counted along it

EC50 [1]: 15 nM
B1: LTβR-Fc (R&D Systems) (Fc fusion, UniProt P36941 28-227, looked up)
chain: SQPQAVPPYASENQTCRDQEKEYYEPQHRICCSRCPPGTYVSAKCSRIRDTVCATCAENSYNEHWNYLTICQLCRPCDPVMGLEEIAPCTSKRKTQCRCQPGMFCAAWALECTHCELLSDCPPGTEAELKDEVGKGNNHCVPCKAGHFQNTSSPSARCQPHTRCENQGLVEAAPGTAQSDTTCKNPLEPLPPEMSGTMLM
notes: also called LTBR-Fc; biotin-LTβR-Fc; not shown: Fc part of the bought fusion; not described

% of WT binding [2]: 73% | % of WT binding [3]: 52% | % of WT binding [4]: 96% | % of WT binding [5]: 77% | % of WT binding [6]: 1% | % of WT binding [7]: 0% | % of WT binding [8]: 0% | % of WT binding [9]: 0% | % of WT binding [10]: 0% | % of WT binding [11]: 78% | % of WT binding [12]: 3% | IC50 [13]: 0.214 nM | IC50 [14]: 0.031 µg/mL | binding ratio, mAb to LIGHT trimer [15]: 1 mAb per LIGHT trimer | IC50, inhibition of IL-8 secretion, HT-29 + EL4-NC-LIGHT cells [16]: 0.6 nM | binding result [17]: binds | EC50 [18]: 0.083 nM
B2: 2B11 chimeric IgG4 mAb (antibody, V domains shown)
VH: EVQLVESGAELVRPGVSVKISCKGSGYTFTDYAIHWVKQSHAKSLEWIGVISTYYGDASYNQKFKGKATMTVDKSSSTAYMELARLTSEDSAIYYCARSRGEYGNYDAMDYWGQGTSVTVSS
VL: DIVLTQSPASLAVSLGQRATISCRASESVDSYGNSFMHWYQQKPGQPPKLLIYRASNLESGIPARFSGSGSRTDFTLTINPVEADDVATYYCQQSNEDPYTFGGGTKLEIK
notes: Chimeric human IgG4 (S-to-P, L-to-E) with human CL, as m1; Often misprinted 2B111; also called Parental 2B11; 2B111

EC50 [1]: 45 nM
B3: HVEM-Fc (R&D Systems) (Fc fusion, UniProt Q92956 37-202, looked up)
chain: PALPSCKEDEYPVGSECCPKCSPGYRVKEACGELTGTVCEPCPPGTYIAHLNGLSKCLQCQMCDPAMGLRASRNCSRTENAVCGCSPGHFCIVQDGDHCAACRAYATSSPGQRVQKGGTESQDTLCQNCPPGTFSPNGTLEECQHQTKCSWLVTKAGAGTSSSHWV
notes: unlabelled in the Fab screen; also called biotin-HVEM-Fc; not shown: Fc part of the bought fusion; not described

From patent US20210284747A1 (CAPELLA BIOSCIENCE, published 2021)
